Measured values as given in article doi:10.1101/2020.09.30.318261 (bioRxiv, 2020).

Target: full-length SARS-CoV-2 spike protein, wildtype, surface expressed (SARS-CoV-2, UniProt P0DTC2)
Assay: flow cytometry on cells

B1: human monoclonal antibody 47D11 (antibody, V domains shown)
VH: QVQLQESGPGLVKPSETLSLTCSVSGGSISSHYWSWIRQPPGKGLEWIGYIYYSGSTNHNPSLKSRVTISVDTSKNQFSLKLSSVTAADTAVYYCARGVLLWFGEPIFEIWGQGTMVTVSS
VL: EIVMTQSPATLSVSPGERATLSCRASQSVSSSLAWYQQKPGQAPRLLIYGASTRAPGIPARFSGSGSGTEFTLTISSLQSEDFAVYYCQQYNNWPLTFGGGTKVEI
  binding result: binds
